Experimental findings from paper PMC8605023 are described below.

For assay [1], the target named is ATG8 domain of MAP1LC3C (human) (UniProt Q9BXW4). Description: FP.
Another assay addresses USP7 (human) (UniProt Q93009).
The target in the next assay is USP7 MATH. Nature of the assay: FP.
The target of another assay is AP2M1 (human) (UniProt Q96CW1).
Assay [2] has as its target FITC-SQSTM1 peptide 335-344 (human).
In assay [3] the target is SQSTM1 FITC-….
The target in assay [4] is G3BP2 NTF2 domain (human) (UniProt Q9UN86).
G3BP2 NTF2 domain (human), sequence (Q9UN86 11-133): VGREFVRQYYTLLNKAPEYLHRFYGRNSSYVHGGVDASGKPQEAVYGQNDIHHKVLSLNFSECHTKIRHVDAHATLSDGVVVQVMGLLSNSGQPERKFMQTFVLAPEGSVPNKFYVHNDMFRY
In assay [5] the target is G3BP1 NTF2 domain (human) (UniProt Q13283).
G3BP1 NTF2 domain (human), sequence (Q13283 11-133): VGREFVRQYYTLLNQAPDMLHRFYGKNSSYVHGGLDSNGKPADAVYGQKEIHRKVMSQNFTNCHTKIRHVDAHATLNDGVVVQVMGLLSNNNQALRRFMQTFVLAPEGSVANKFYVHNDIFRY
Assay [6] deals with MAP1LC3C ATG8 domain (human) (UniProt Q9BXW4).
MAP1LC3C ATG8 domain (human), sequence (Q9BXW4 1-126): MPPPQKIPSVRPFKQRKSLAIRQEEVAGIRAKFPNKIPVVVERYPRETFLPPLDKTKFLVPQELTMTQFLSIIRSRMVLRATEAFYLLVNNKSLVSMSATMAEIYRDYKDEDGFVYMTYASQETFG
The target in assay [7] is FITC-MDM2 peptide (human).
Assay [8] deals with ATG9A FITC-….

AP2M1 (human), sequence (Q96CW1 whole entry): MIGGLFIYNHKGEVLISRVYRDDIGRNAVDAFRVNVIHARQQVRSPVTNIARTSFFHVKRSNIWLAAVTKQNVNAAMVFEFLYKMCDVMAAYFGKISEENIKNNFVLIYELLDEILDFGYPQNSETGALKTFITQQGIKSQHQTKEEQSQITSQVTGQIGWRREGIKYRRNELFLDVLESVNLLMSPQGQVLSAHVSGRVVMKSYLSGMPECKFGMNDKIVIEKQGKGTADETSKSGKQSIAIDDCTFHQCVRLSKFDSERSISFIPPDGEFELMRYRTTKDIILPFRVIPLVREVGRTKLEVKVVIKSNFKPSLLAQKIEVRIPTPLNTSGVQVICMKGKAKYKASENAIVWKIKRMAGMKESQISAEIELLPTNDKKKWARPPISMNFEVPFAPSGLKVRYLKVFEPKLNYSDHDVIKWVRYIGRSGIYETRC
USP7 (human), sequence (Q93009 whole entry): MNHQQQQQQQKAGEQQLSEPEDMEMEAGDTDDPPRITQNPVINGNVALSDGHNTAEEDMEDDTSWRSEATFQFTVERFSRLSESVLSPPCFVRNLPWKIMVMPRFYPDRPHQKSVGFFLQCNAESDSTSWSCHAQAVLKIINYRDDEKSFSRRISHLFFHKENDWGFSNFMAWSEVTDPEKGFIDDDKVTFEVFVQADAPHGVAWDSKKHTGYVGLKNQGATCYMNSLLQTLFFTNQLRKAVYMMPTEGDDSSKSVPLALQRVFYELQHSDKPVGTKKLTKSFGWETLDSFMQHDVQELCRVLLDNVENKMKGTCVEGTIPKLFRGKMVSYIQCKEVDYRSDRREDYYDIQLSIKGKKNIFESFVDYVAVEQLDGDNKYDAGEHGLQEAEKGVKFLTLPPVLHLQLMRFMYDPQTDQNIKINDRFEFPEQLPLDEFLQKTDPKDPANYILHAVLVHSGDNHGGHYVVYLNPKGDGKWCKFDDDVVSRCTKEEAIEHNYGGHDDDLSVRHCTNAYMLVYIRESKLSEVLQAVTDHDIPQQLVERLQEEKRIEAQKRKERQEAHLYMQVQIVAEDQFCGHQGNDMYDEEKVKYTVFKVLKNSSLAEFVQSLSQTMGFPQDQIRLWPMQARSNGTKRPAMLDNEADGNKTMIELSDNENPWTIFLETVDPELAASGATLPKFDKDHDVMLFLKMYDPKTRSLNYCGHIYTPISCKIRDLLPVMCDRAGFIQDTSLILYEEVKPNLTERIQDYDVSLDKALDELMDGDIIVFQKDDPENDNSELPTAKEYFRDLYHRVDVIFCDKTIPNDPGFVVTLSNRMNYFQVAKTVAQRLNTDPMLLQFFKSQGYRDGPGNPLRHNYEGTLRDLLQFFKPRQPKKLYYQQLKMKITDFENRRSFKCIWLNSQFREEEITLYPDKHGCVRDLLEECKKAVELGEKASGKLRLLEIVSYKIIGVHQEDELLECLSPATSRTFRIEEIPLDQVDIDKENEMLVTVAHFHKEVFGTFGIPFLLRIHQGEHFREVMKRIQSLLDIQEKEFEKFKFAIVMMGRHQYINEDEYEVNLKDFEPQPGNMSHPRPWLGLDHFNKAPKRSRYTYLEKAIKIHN
ATG8 domain of MAP1LC3C (human), sequence (Q9BXW4 whole entry, the tested form may be a part): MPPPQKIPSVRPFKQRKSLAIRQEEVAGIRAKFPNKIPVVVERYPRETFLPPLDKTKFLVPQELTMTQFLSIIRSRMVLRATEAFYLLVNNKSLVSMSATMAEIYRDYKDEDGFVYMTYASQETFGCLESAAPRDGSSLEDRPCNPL

Turning to SARS-CoV-2 NSP3 2019-2038, in assay [1], the Kd (commonly the equilibrium constant for the complex coming apart) turned out to be 210 µM.
Consider N peptide 206-220 (Sars-CoV), for which, in the assay with USP7 (human), the IC50 (usually the concentration that gives 50% inhibition) came to 1500 µM; the Ki (in general, the dissociation constant of the complex between target and ligand, obtained from inhibition or displacement) was 220 µM.
In the assay with USP7 MATH, SARS-CoV NSP4 3248-3263 showed a Kd of 67 µM.
Turning to N peptide 353-367 (Sars-CoV2/Sars-CoV), in the assay with AP2M1 (human), the IC50 came to 1530 µM and the Ki came out at 530 µM.
Take “MAP1LC3C ATG8 domain (from UniProt Q9BXW4 1-126) (domain or fragment)”: the Kd in [2] and in assay [3] was 1.1 µM in each case.
SARS-CoV NSP3 2019-2034 registered a Kd with USP7 MATH of 29 µM.
In the assay with USP7 (human), NSP1 peptide 161-177 (Sars-CoV) displayed an IC50 of 2000 µM and a Ki of 280 µM.
On to “NSP3 peptide 1796-1809 (SFV, Semliki-Forest-Virus)”, for which the IC50 in assay [4] stood at 11 µM.
Regarding N peptide 406-422 (Sars-CoV), in the assay with USP7 (human), the IC50 amounted to 690 µM and the Ki amounted to 96 µM.
In [5], “NSP3 peptide 1785-1809 (SFV, Semliki-Forest-Virus)” returned an IC50 of 0.0044 µM. For the same substance, in assay [4], the IC50 turned out to be 0.0019 µM and the Ki stood at 0.15 µM.
Substance SARS-CoV NSP1 161-176 showed a dissociation constant (Kd) with USP7 MATH of 280 µM.
With SARS-CoV NSP3 2019-2038, the Kd in assay [1] stood at 28 µM.
In turn, SARS-CoV-2 NSP3 2019-2034 displayed a Kd with USP7 MATH of 37 µM.
In the assay with AP2M1 (human), NSP14 peptide 6498-6512 (Mers) registered a Ki of 3 µM.
For SARS-CoV-2 N 405-419, the Kd with USP7 MATH came out at 150 µM.
In the case of NSP3 peptide 1996-2011 (Sars-CoV), in the assay with USP7 (human), the IC50 was 210 µM and the Ki turned out to be 29 µM. In assay [6], this substance yielded an IC50 of 200 µM and a Ki of 28 µM.
In turn, SARS-CoV N 205-219 had a Kd with USP7 MATH of 220 µM.
Still for that read-out and setting: to SARS-CoV-2 NSP4 3248-3263 belongs 67 µM.
Take “NSP4 peptide 3248-3263 (Sars-CoV2/Sars-CoV)”: in the assay with USP7 (human), the IC50 came to 480 µM and the Ki worked out at 67 µM.
The substance SARS-CoV N 405-419 registered a Kd in the assay with USP7 MATH of 96 µM.
On to “NSP3 peptide 1785-1796 (SFV, Semliki-Forest-Virus)”, for which the IC50 in assay [5] stood at 23 µM; in assay [4], 13 µM.
In turn, “USP7 (from UniProt Q93009 1-1102) (domain or fragment)” registered a Kd in assay [7] of 0.49 µM.
Consider “AP2M1 (from UniProt Q96CW1 1-435) (domain or fragment)”, for which the Kd in assay [8] was 1.1 µM.
